Source: patent publication US20140079714A1 (published 2014)
Numbering of substitutions follows the chain as printed. In names and notes the source's numbering stands.

Assays:
[1] = molecular target: T1, human interleukin 12 (hIL-12), p70 heterodimer of p35 and p40 (human, UniProt P29459 23-219; P29460 23-328); experiment: RB assay: inhibition of IL-12 binding to its receptor
T1 construct: the text says recombinant human IL-12. p35 and p40 are disulfide-linked; also called rh IL-12
T1 sequence (looked up) 1: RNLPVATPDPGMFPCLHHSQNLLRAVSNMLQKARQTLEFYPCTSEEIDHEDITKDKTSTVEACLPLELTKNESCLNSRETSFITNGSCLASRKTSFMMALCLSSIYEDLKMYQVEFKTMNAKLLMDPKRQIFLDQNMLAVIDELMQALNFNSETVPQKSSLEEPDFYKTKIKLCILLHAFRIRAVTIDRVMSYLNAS
T1 sequence (looked up) 2: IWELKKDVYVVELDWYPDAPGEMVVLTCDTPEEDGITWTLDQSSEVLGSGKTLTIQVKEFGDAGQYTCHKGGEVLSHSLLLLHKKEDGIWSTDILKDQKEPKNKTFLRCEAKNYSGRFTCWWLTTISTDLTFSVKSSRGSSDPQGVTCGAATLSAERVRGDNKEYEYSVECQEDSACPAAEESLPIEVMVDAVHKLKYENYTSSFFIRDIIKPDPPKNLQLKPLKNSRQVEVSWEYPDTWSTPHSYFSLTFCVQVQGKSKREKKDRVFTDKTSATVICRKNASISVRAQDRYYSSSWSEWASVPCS

[2] = molecular target: T1, human interleukin 12 (hIL-12), p70 …; experiment: cell-based or functional assay
[3] = molecular target: T1, human interleukin 12 (hIL-12), p70 …; experiment: koff, Table 2 (surface plasmon resonance per text)
[4] = molecular target: T1, human interleukin 12 (hIL-12), p70 …; experiment: cell-based or functional assay; remark: listed apart in the source

B1: Y61-L50Y (antibody, V domains shown)
VH: QVQLVQSGGGVVQPGRSLRLSCAASGFTFSSYGMHWVRQAPGKGLEWVAFIRYDGSNKYYADSVKGRFTISRDNSKNTLYLQMKSLRAEDTAVYYCKTHGSHDNWGQGTMVTVSS
VL: SYVLTQPPSVSGTPGQRVTISCSGGRSNIGSNTVKWYQQLPGTAPKLLIYYNDQRPSGVPDRFSGSKSGTSASLAITGVQAEDEADYYCQSYDRGTHPALLFGTGTKVTVLG
How did the IC50 [1] turn out when B1 was run?
Its IC50 is 0.02 nM.

And the “IFN gamma IC50” value [2]?
The value was 0.02 nM.

B2: Y61-L50Y* IgG (antibody, V domains shown)
VH: B1 VH
VL: B1 VL
notes: IgG
For B2, which koff [3] is on record?
Its koff is 6.98e-05 s⁻¹.

And the “IFN gamma IC50” value [2]?
The value was 0.03 nM.

What about the “PHA assay IC50” value [2] of the same binder?
The value was 0.02 nM.

B3: Y61-L94Y IgG (antibody, V domains shown)
VH: B1 VH
VL: B1 VL with Y51G, G95Y
notes: IgG
With B3 as the binder, how does the IC50 [1] read?
The IC50 was 0.06 nM.

What about the koff [3] of the same binder?
Its koff is 0.000127 s⁻¹.

And the “IFN gamma IC50” value [2]?
Its value is 0.04 nM.

And the “PHA assay IC50” value [2]?
Its value is 0.05 nM.

B4: Y-61-L50Y-H31E**gG (antibody, V domains shown)
VH: B1 VH with S31E
VL: B1 VL
notes: also called Y61-L50Y-H31E IgG
Which koff [3] does the source give for B4 here?
The koff was 2.99e-05 s⁻¹.

What about the “IFN gamma IC50” value [2] of the same binder?
The value was 0.02 nM.

What about the “PHA assay IC50” value [2] of the same binder?
Its value is 0.06 nM.

B5: 149-7 (antibody, V domains shown)
VH: TTHGSHDNWGQG
VL: QSYDRDFTGSRV
What does the source list for B5?
PHA assay IC50 (M) p70:p40 1:0 [4]: 3.5e-09 M; PHA assay IC50 (M) p70:p40 1:20 [4]: 2.5e-09 M; PHA assay IC50 (M) p70:p40 1:50 [4]: 4e-09 M
